We go through six molecules from PMC3338774, “Crystal Structure of ChrR—A Quinone Reductase with the Capacity to Reduce Chromate” (PLoS ONE, 2012).

Data set [1] addresses T1, ChrR (Escherichia coli, UniProt P0AGE6).
T1 construct: full-length recombinant from E. coli BL21 (DE3), pET28a (His) or pTYB3 (intein), tags removed by thrombin or DTT; untagged WT crystallized; tetramer; residues 4-184 (chain A) and 4-185 (chain B) seen in crystal
T1 sequence (P0AGE6 1-188): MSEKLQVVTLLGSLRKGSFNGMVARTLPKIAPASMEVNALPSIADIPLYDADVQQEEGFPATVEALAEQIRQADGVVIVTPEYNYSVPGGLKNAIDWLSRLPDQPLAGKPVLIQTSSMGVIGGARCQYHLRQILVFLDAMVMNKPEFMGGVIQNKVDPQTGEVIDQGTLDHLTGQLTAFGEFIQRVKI
In words: X-ray crystallography, […] Å. The format is binding. As to conditions: bound at active site, non-covalent; crystals at PEG8000, NaCl, calcium acetate.

Data set [2] deals with the molecule itself. In words: crystal structure; untagged wild type ChrR at 26 mg/mL, sitting drop vapor diffusion, PEG8000, sodium chloride, calcium acetate; 2.2 Å, space group P6(3)22; two molecules (a homo-dimer) in the asymmetric unit, tetramer formed by two symmetry related dimers.
Data set [3] concerns the molecule itself. Description: SEC; analytic Superdex 200 10/300 column, 0.5 mL per min; proteins pre-incubated with FMN (1 mM, 2 h); various protein concentrations, including those used for measuring the enzyme activity.

Turning to `Cc1cc2nc3c(=O)[nH]c(=O)nc-3n(C[C@H](O)[C@H](O)[C@H](O)COP(=O)(O)O)c2cc1C` [FMN, flavin mononucleotide], in data set [1], the “X-ray crystallography, 2.2 Å” value is “FMN is anchored by several hydrogen bonds to a typical strand-loop-helix nucleotide-binding motif”.

B1: Escherichia coli ChrR enzyme, wild type (enzyme)
chain: EKLQVVTLLGSLRKGSFNGMVARTLPKIAPASMEVNALPSIADIPLYDADVQQEEGFPATVEALAEQIRQADGVVIVTPEYNYSVPGGLKNAIDWLSRLPDQPLAGKPVLIQTSSMGVIGGARCQYHLRQILVFLDAMVMNKPEFMGGVIQNKVDPQTGEVIDQGTLDHLTGQLTAFGEFIQRVKI
notes: ChrR, quinone reductase with chromate reductase activity, Escherichia coli; the crystal structure models residues 4-184 (chain A) and 4-185 (chain B); The crystallised protein is called untagged; also called ChrR WT; native ChrR; source: E. coli BL21 (DE3), purified (His-Trap nickel or chitin bead column, tag removed, gel filtration on Superdex 200)
As for B1, in data set [2], the stoichiometry N (usually a count of units in the complex or per binding partner) was determined as 4.

B2: ChrR42 (Tyr85Asn) (enzyme, Escherichia coli)
chain: EKLQVVTLLGSLRKGSFNGMVARTLPKIAPASMEVNALPSIADIPLYDADVQQEEGFPATVEALAEQIRQADGVVIVTPEYNNSVPGGLKNAIDWLSRLPDQPLAGKPVLIQTSSMGVIGGARCQYHLRQILVFLDAMVMNKPEFMGGVIQNKVDPQTGEVIDQGTLDHLTGQLTAFGEFIQRVKI
notes: ChrR, Escherichia coli, with Tyr85Asn; PDB 3SVL is the wild-type parent; source: E. coli BL21 (DE3), pET28a, purified (His-Trap nickel column, tag removed, gel filtration)
As to B2, the “stoichiometry N” value in data set [3] worked out at 4.

B3: ChrR43 (Arg125Met) (enzyme, Escherichia coli)
chain: EKLQVVTLLGSLRKGSFNGMVARTLPKIAPASMEVNALPSIADIPLYDADVQQEEGFPATVEALAEQIRQADGVVIVTPEYNYSVPGGLKNAIDWLSRLPDQPLAGKPVLIQTSSMGVIGGAMCQYHLRQILVFLDAMVMNKPEFMGGVIQNKVDPQTGEVIDQGTLDHLTGQLTAFGEFIQRVKI
notes: ChrR, Escherichia coli, with Arg125Met; PDB 3SVL is the wild-type parent; source: E. coli BL21 (DE3), pET28a, purified (His-Trap nickel column, tag removed, gel filtration)
Consider B3, for which, in data set [3], the “stoichiometry N” value stood at 4.

B4: ChrR21 (Tyr128Asn) (enzyme, Escherichia coli)
chain: EKLQVVTLLGSLRKGSFNGMVARTLPKIAPASMEVNALPSIADIPLYDADVQQEEGFPATVEALAEQIRQADGVVIVTPEYNYSVPGGLKNAIDWLSRLPDQPLAGKPVLIQTSSMGVIGGARCQNHLRQILVFLDAMVMNKPEFMGGVIQNKVDPQTGEVIDQGTLDHLTGQLTAFGEFIQRVKI
notes: ChrR, Escherichia coli, with Tyr128Asn; PDB 3SVL is the wild-type parent; source: E. coli BL21 (DE3), pET28a, purified (His-Trap nickel column, tag removed, gel filtration)
On to B4, for which the “stoichiometry N” value in data set [3] worked out at 4.

B5: ChrR41 (Glu146Thr) (enzyme, Escherichia coli)
chain: EKLQVVTLLGSLRKGSFNGMVARTLPKIAPASMEVNALPSIADIPLYDADVQQEEGFPATVEALAEQIRQADGVVIVTPEYNYSVPGGLKNAIDWLSRLPDQPLAGKPVLIQTSSMGVIGGARCQYHLRQILVFLDAMVMNKPTFMGGVIQNKVDPQTGEVIDQGTLDHLTGQLTAFGEFIQRVKI
notes: ChrR, Escherichia coli, with Glu146Thr; PDB 3SVL is the wild-type parent; source: E. coli BL21 (DE3), pET28a, purified (His-Trap nickel column, tag removed, gel filtration)
For the molecule B5, in data set [3], the “stoichiometry N” value came to 4.
